According to patent US20060269536:

How the values were obtained:
[1] = test system: substrate pentapeptide ER↓VSP
[2] = test system: substrate pentapeptide RR↓SID
[3] = test system: substrate pentapeptide KLR↓TT
[4] = test system: substrate pentapeptide RGR↓SE
[5] = test system: substrate pentapeptide LR↓SRA
[6] = test system: substrate pentapeptide MTR↓SN

human glandular kallikrein hK2
substrate phage display: peptide selected as cleaved by hK2 (scissile bond ↓) [1]: ER↓VSP | substrate phage display: peptide selected as cleaved by hK2 (scissile bond ↓) [2]: RR↓SID | substrate phage display: peptide selected as cleaved by hK2 (scissile bond ↓) [3]: KLR↓TT | substrate phage display: peptide selected as cleaved by hK2 (scissile bond ↓) [4]: RGR↓SE | substrate phage display: peptide selected as cleaved by hK2 (scissile bond ↓) [5]: LR↓SRA | substrate phage display: peptide selected as cleaved by hK2 (scissile bond ↓) [6]: MTR↓SN
